Residue numbers refer to the chain shown, from its start. Numbers in names are those of the source.
Key:
[1] = target: the molecule itself; assay: dynamic light scattering
[2] = target: the molecule itself; assay: crystal structure

B1: MIF(Y100H) variant (enzyme, human)
chain: MPMFIVNTNVPRASVPDGFLSELTQQLAQATGKPPQYIAVHVVPDQLMAFGGSSEPCALCSLHSIGKIGGAQNRSYSKLLCGLLAERLRISPDRVYINYHDMNAANVGWNNSTFA
With B1 the “stoichiometry N” value [1] was 3.

B2: MIF(S61H/Y100H) variant (enzyme, human)
chain: B1 chain with S61H
B2: binds [2].

Source: publication PMC12313933 (Nature Communications, 2025)
